Numbering of substitutions follows the chain as printed.

To fix the notation:
B1: B1037 (antibody, V domains shown)
VH: QVQLVQSGAEVKKPGSSVKVSCKASGDTFISYAITWVRQAPGQGLEWMGRIIPILGVADYAPKFQGRVTITADKSTSTAYMELSSLRSEDTAVFYCASWRGREYNGYDWTGPTRGFDSWGQGTLVTVSS
VL: not shown
notes: source: 293-6E cells, transfected, purified (Protein G Sepharose)
B2: C3095 (antibody, V domains shown)
VH: EVQLVETGGGLIQPGGSLRLSCAASEFIVSANYMHWVRQAPGQGLEWVSVIYAGGSTFYADSVKGRFTISRDNSKNSLYLQMNSLRAEDTAVYYCARGLGDYFDFWGQGTLVTVSS
VL: DIQMTQSPSTLSASVGDRVTITCRASQSFSDWLAWYQQKPGSAPKLLIYRASSLESGVPSRFSGSGSGTEFTLTISSLQPDDFATYYCQQYNTYPLTFGGGTKVEIK
notes: as for B1
B3: B1002 (antibody, V domains shown)
VH: QVQLVQSGAEVKKPGSSVKVTCRASGGTFSNLAISWVRQAPGQGLEWMGSIIPMFTISNYAQKLKGRVTITADKSTSTAYMELSSLRSGDTAVYFCASLGSNITVVRGAPITDHHFHYWGQGTLVTVSS
VL: QSALTQPASVSGSPGQSVTISCTGTSSDVGTYNLVSWYQQHPGKAPKLMIYEVSKRPSGVSNRFSGSKSGNTASLTISGLQAEDEADYYCCSYAASSTTHWVFGGGTKLAV
notes: as for B1
B4: C1034 (antibody, V domains shown)
VH: QLQLQESGPGLVKPSETLSLTCTVSGGSVSSNNHYWGWIRQPPGKGLEWIGSISSSGSTHHNPSLRSRVTISVDTSKNHFSLKLNSVTATDTAVYYCARVDSSGWYTGDVFDVWGQGTMVTVSS
VL: DIQMTQSPSSLSASVGDRVTITCRASQTINNYLNWYQQKPGKPPKLLIYAAFSLHSGVPSRFSGSRSGTDFTLTISSLQPEDFATYYCQHSYSTMCSFGQGTKLEIK
notes: as for B1
B5: B2064 (antibody, V domains shown)
VH: QVQLVQSGAEVKKPGSSVNVSCKASGGTLNIYTFSWVRQAPGQGLEWVGTIVPLVGKANYPHKFQGRVTITADKSTSTVNMELSSLRSEDTAVYYCASEVLDNLRDGYNFWGQGTLVTVSS
VL: DIQMTQSPSSLSASVGDRVTITCRASQSVSSYLNWYQQKPGKAPKLLIYAVSSLQSGVPSRFSGSGSGTDFTLTISSLQPEDFATYYCQQTYNTLTFGGGTKVEIK
notes: as for B1
B6: C2655 (antibody, V domains shown)
VH: QVQLVQSGAEVKKPGSSVKVSCKASGGTFNSYAISWVRQAPGQGLEWMGGIIHVLGTANYAQRFQGRVTITADESTSTVYMELSSLRSEDTAVYYCARVGAPLGRADSGYDFYYYGMDVWGQGTTVTVSS
VL: not shown
notes: as for B1
B7: C3055 (antibody, V domains shown)
VH: QVQLVQSGAEVKKPGSSVNVSCRASGGTFSSKTISWVRQAPGQGLEWMGKIFPILGVANYAQKFQGRVTITADRSTNTAYMELNSLRSEDTAIYYCATEEGYSSSRSLPAEYFRQWGQGTLVTVSS
VL: QSVLTQPPSVSGAPGQRVTISCTGSNSNIGAGYDVHWYQQLPGTAPKLLIYANTNRPSGVPDRFSGSKSGTSASLAITGLQAEDEADYYCQSYDSGLSGSLFGGGTKLTVL
notes: as for B1
B8: C2488 (antibody, V domains shown)
VH: QVQLVESGGGVVQPGRSLRLSCAASGFTFSTHGMHWVRQAPGKGLEWMAVIYFDGSNKYYADSVKGRFAISRDNSKNTLFLQMNSLRADDTAVYHCATNSAGYGDSYETFDIWGQGTMVSVSS
VL: EIVMTQSPATLSVSPGERATLSCRASHSVGTNLAWYQQKPGQAPRLLIYGAFTRAAGISARFSGSGSGTEFTLTISSLQSEDLAVYYCQQYENWPPYTFGQGTKLEIK
notes: as for B1
B9: C3108 (antibody, V domains shown)
VH: QVQLQESGPGLVKPSQTLSLTCTVSGGSISSGGYYWNWIRQSPVKGLEWIGYIYYSGGTYYNPSLRSRLTISLDTSNNQFSLRLNSVTAADTAIYYCARDQGAITFGTDAFEIWGQGTMVTVSS
VL: DIQMTQSPSSLSASVGDRVTITCQASQDISKYLNWYQQKPGKAPKLLIYGASTLKAGVPSRFSGSGSGTDFTFTISSLQPEDIATYYCQQYDSLPPTFGGGTKVEIK
notes: as for B1
B10: C3102 (antibody, V domains shown)
VH: QVQLVQSGAEVKKPGSSVKVSCKASGGTFRRYAISWVRQAPGQGLEWMGGIIPIAGAADYAQKFQARVTITADESTSTAYLELSSLRSEDTAVYYCAREISYCSGAPCYAGYYDYGMDVWGQGTTVTVSS
VL: QSVLTQPPSASGTPGQRVTISCSGNSSNIGSNSVNWYQQLPGTAPKLLIKSTNQRPSGVPDRFSGSKSGTSASLAISGLQSEDEADYYCAAWEDVLNAVVFGGGTMLTV
notes: as for B1
B11: B1032 (antibody, V domains shown)
VH: EVQLVESGGGLVQPGRSLRLSCEASGFTFEDFAMHWVRQAPGKGLEWVSGVSWNSGTIGYGDSVKGRFIIIRDNAKNSVYLQMNSLRPEDTAFYYCVKDMATYYKDISGTYGMDVWGQGTTVTVSS
VL: SYELTQTPSVSVAPGQTARITCVGNNIGSESVHWYQQKSGRAPVLVVYDDSDRPSGIPERFSGSTSGTTATLIINRVEAGDEAGYYCQVWDASSDHVVFGGGTKLTVL
notes: as for B1
B12: B2006 (antibody, V domains shown)
VH: EVQLVQSGAEVKKPGESLKISCKGFGSSFTNYWIGWVRQMPGKGLEWMGSVYAGDSDTRYSPSFQGQVTVSADKSITTAYLQWTSLKASDTAMYFCARASQGNYFDFWGQGTLVTVSS
VL: DIQMTQSPSTLSASVGDRVTITCRASQSISRWLAWYQQKPGKAPKLLIYDASILESGVPSRFSGSGSGTDFTLTISSLQPDDYATYYCQQFYSNLYTFGQGTKLEIK
notes: as for B1
B13: B1030 (antibody, V domains shown)
VH: QVQLVQSGAEVKKPGASVRVSCKASGYTFTSYYMHWVRQAPGQGLEWMGIINPSDGGASYAQKFQGRVTMTSDTSTSTVYMELSSLRSEDTAVYYCARALRHHSSGWYSALDFQHWGQGTLVTVSS
VL: not shown
notes: as for B1
B14: C2606 (antibody, V domains shown)
VH: QVQLVQSGAEVKKPGSSVKVSCKASGDTFRSYAISWVRQAPGQGLEWMGRIIPMLGITTYEQKYQGRLKIIADKSTSTAYMELSSLRSEDTAVYFCARDGVGATEPYYYDYWGQGTLVTVSS
VL: QSVLTQPASVSGSPGQSIIISCTGTSSDVGKYDFVSWYQQHPGKAPKLMIYDVSKRPSGVSDRFSGSKSGNTASLTISGLQAEDEADYHCASYTSDSSYLVFGGGTKLTVL
notes: as for B1
B15: B2058 (antibody, V domains shown)
VH: EVQLVESGGGLIQPGGSLRLSCAASGLTVSSNYMSWVRQAPGKGLEWVSVIYPGGSTFYADSVKGRFTISRDNSKNTLYLQLNSLRADDTAVYFCARGDGYTDYYYGLDVWGQGTTVTVSS
VL: DIQLTQSPSSLSASVGDRVTITCRASQSISSYLNWYQQKPGKAPKLLIYAASSLQSGVPSRFSGSGSGTDFTLTISSLQPEDFATYYCQQRGFGQGTKVEIK
notes: as for B1
B16: B1026 (antibody, V domains shown)
VH: QMQLVQSGPEIKKPGTSVKVSCKASGFTFSNSAVQWVRQARGQRLEWIGWIVVGSGDPNYAQKFQERVTLTRDMSTSTAYMELSSLRSEDTAVYYCATNHCSRTICSDGFDIWGQGTVVTVSS
VL: EIVLTQSPVSLSLSPGERATLSCRASQTVRSSYFVWYQQKLGQAPRLLIYSASSRAAGIPDRFSGSGSGTDFTLTISRLEPEDFAVYYCQQYGSSPWTFGQGTKVEIK
notes: as for B1
B17: B1011 (antibody, V domains shown)
VH: QVQLVQSGAEVKKPGASVKVSCKASGYTFISYYTHWVRQAPGQGLEWMGIINPSDGYTSYAQKFQGRVTMTRDTSASTVYMELSSLRSEDTAVYYCARDSSIAARVVAWGQGTLVTVSS
VL: DIQMTQSPSSLSASVGDRVTITCQASQDIYNYLNWYQQKPGKAPKLLIFDAINLETGVPSRFSGSGSGTDFTFTISSLQPEDIATYYCQQHDNLPYSFGQGTKLEIK
notes: as for B1
B18: B1034 (antibody, V domains shown)
VH: B17 VH with A9S, Y27N, S31T, I50V, N52K, S59N, R87T, E89D, A108D
VL: B17 VL with F73L
notes: as for B1
B19: B1012 (antibody, V domains shown)
VH: B17 VH
VL: B17 VL with Y30G, I52S, T56A, G64A, T74A, T85A, N93D, K103T
notes: as for B1
B20: B2014 (antibody, V domains shown)
VH: QVQLVQSGAELKRPGASVKVSCKASGYTFSDYHMNWVRQAPGQGLEWMGIINPSGGGASYPQKFQGRVTMTRDTSTSTVFMQLNSLTYEDTAVYYCARGTPPSRGWYGGFDNWGQGTLVTVSS
VL: QSVLTQPPSVSGAPGQRITISCTGSTSNIGAGYDVQWYQQLPGTAPKLLIFDNNNRPSGVPDRFSGSKSGTSASLAITGLQAEDEADYYCQSFDSTLSGSTFVFGPGTKVTVL
notes: as for B1

For this experiment, the target named is WT RBD (SARS-CoV-2 Wuhan-Hu-1 spike receptor binding domain) (SARS-CoV-2 (Wuhan-Hu-1), UniProt P0DTC2). Put plainly: BLI. The following applies: both partners purified.
B1 yielded a Kd of 3210 pM. This counts as single-digit nanomolar.
As for B2, the Kd was determined as 1.58 pM. Against the preceding molecule, the Kd is about 2000-fold lower.
Next, B3: 732 pM.
For B4 the value was 1980 pM; for B5, 866 pM; for B6, 1340 pM.
In turn, B7 showed a Kd of 592 pM.
Next, B8: 8950 pM; B9: 960 pM; B10: 639 pM.
Take B11: binding was put at a Kd of 520 pM.
For B12 the value was 582 pM; for B13, 5060 pM.
Take B14: binding was characterised by a dissociation constant (Kd) of 743 pM.
For B15 the value was 1020 pM.
For the molecule B16, the Kd was 12000 pM.
B17 registered a Kd of 893 pM.
For B18 the value was 734 pM; for B19, 572 pM; for B20, 1240 pM.

A word on the Kd: it is the concentration at which binding is half-saturated. Read a low Kd as tighter binding.

For the origin of these results see paper PMC9849103 (Nature Communications, 2023).
